# Measured values as given in the supplement of paper PMC5998384.
# What was measured:
# [1] = test system: HeLa Kyoto; assay: thermal stability score vs G1/S (z-score of summed log2 fold changes over temperatures); higher = more thermally stable than in G1/S
# [2] = test system: HeLa Kyoto; assay: solubility in G1/S (NP-40 vs SDS abundance) (log2 ratio); higher = more soluble; conditions: cell cycle stage: G1/S
# [3] = test system: HeLa Kyoto; assay: melting temperature (median over replicates), in situ; higher = more thermally stable
# [4] = test system: HeLa Kyoto; assay: solubility change mitosis vs G1/S (difference of NP-40 vs SDS log2 ratios) (log2 ratio difference); higher = more soluble in mitosis
# [5] = cell cycle stage: early G1 (4.5 h after nocodazole release)
# 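For melting temperature (median over replicates), in situ in this document: HeLa Kyoto cells synchronized by double thymidine or nocodazole block, proteins quantified by TMT10plex mass spectrometry, three independent biological replicates.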
# 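For solubility change mitosis vs G1/S (difference of NP-40 vs SDS log2 ratios) in this document: synchronized HeLa Kyoto cells (double thymidine block for G1/S, nocodazole release for mitosis), protein amounts in NP-40 versus SDS lysates quantified by mass spectrometry, three biological replicates.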
# 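For solubility in G1/S (NP-40 vs SDS abundance) in this document: HeLa Kyoto cells arrested at G1/S by double thymidine block, proteins quantified by TMT10plex mass spectrometry in mild NP-40 versus SDS extracts, three biological replicates.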
# 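For thermal stability score vs G1/S (z-score of summed log2 fold changes over temperatures) in this document: synchronized HeLa Kyoto cells, proteins quantified by TMT10plex mass spectrometry, three biological replicates, mitosis taken 0.5 h after nocodazole release, G1/S directly after double thymidine block.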
Sequence,"thermal stability score [1, 5]",thermal stability score ([1]; cell cycle stage: mitosis),solubility in G1/S (log2) [2],melting temperature ([3]; cell cycle stage: G1/S) [°C],melting temperature ([3]; cell cycle stage: mitosis) [°C],solubility change mitosis (log2) [4]
MQPASAKWYDRRDYVFIEFCVEDSKDVNVNFEKSKLTFSCLGGSDNFKHLNEIDLFHCIDPNDSKHKRTDRSILCCLRKGESGQSWPRLTKERAKLNWLSVDFNNWKDWEDDSDEDMSNFDRFSEMMNNMGGDEDVDLPEVDGADDDSQDSDDEKMPDLE [PTGES3],3.93,3.45,0.0757,48.7,49.9,-0.00282
MQPDMSLNVIKMKSSDFLESAELDSGGFGKVSLCFHRTQGLMIMKTVYKGPNCIEHNEALLEEAKMMNRLRHSRVVKLLGVIIEEGKYSLVMEYMEKGNLMHVLKAEMSTPLSVKGRIILEIIEGMCYLHGKGVIHKDLKPENILVDNDFHIKIADLGLASFKMWSKLNNEEHNELREVDGTAKKNGGTLYYMAPEHLNDVNAKPTEKSDVYSFAVVLWAIFANKEPYENAICEQQLIMCIKSGNRPDVDDITEYCPREIISLMKLCWEANPEARPTFPGIEEKFRPFYLSQLEESVEEDVKSLKKEYSNENAVVKRMQSLQLDCVAVPSSRSNSATEQPGSLHSSQGLGMGPVEESWFAPSLEHPQEENEPSLQSKLQDEANYHLYGSRMDRQTKQQPRQNVAYNREEERRRRVSHDPFAQQRPYENFQNTEGKGTAYSSAASHGNAVHQPSGLTSQPQVLYQNNGLYSSHGFGTRPLDPGTAGPRVWYRPIPSHMPSLHNIPVPETNYLGNTPTMPFSSLPPTDESIKYTIYNSTGIQIGAYNYMEIGGTSSSLLDSTNTNFKEEPAAKYQAIFDNTTSLTDKHLDPIRENLGKHWKNCARKLGFTQSQIDEIDHDYERDGLKEKVYQMLQKWVMREGIKGATVGKLAQALHQCSRIDLLSSLIYVSQN [RIPK1],0.9,1.82,0.0577,48.4,48,-0.114
MQPWHGKAMQRASEAGATAPKASARNARGAPMDPTESPAAPEAALPKAGKFGPARKSGSRQKKSAPDTQERPPVRATGARAKKAPQRAQDTQPSDATSAPGAEGLEPPAAREPALSRAGSCRQRGARCSTKPRPPPGPWDVPSPGLPVSAPILVRRDAAPGASKLRAVLEKLKLSRDDISTAAGMVKGVVDHLLLRLKCDSAFRGVGLLNTGSYYEHVKISAPNEFDVMFKLEVPRIQLEEYSNTRAYYFVKFKRNPKENPLSQFLEGEILSASKMLSKFRKIIKEEINDIKDTDVIMKRKRGGSPAVTLLISEKISVDITLALESKSSWPASTQEGLRIQNWLSAKVRKQLRLKPFYLVPKHAKEGNGFQEETWRLSFSHIEKEILNNHGKSKTCCENKEEKCCRKDCLKLMKYLLEQLKERFKDKKHLDKFSSYHVKTAFFHVCTQNPQDSQWDRKDLGLCFDNCVTYFLQCLRTEKLENYFIPEFNLFSSNLIDKRSKEFLTKQIEYERNNEFPVFDEF [MB21D1],-0.379,1.19,-1.72,52.6,53.9,-0.155
MQRLLFPPLRALKGRQYLPLLAPRAAPRAQCDCIRRPLRPGQYSTISEVALQSGRGTVSLPSKAAERVVGRWLLVCSGTVAGAVILGGVTRLTESGLSMVDWHLIKEMKPPTSQEEWEAEFQRYQQFPEFKILNHDMTLTEFKFIWYMEYSHRMWGRLVGLVYILPAAYFWRKGWLSRGMKGRVLALCGLVCFQGLLGWYMVKSGLEEKSDSHDIPRVSQYRLAAHLGSALVLYCASLWTSLSLLLPPHKLPETHQLLQLRRFAHGTAGLVFLTALSGAFVAGLDAGLVYNSFPKMGESWIPEDLFTFSPILRNVFENPTMVQFDHRILGITSVTAITVLYFLSRRIPLPRRTKMAAVTLLALAYTQVGLGISTLLMYVPTPLAATHQSGSLALLTGALWLMNELRRVPK [COX15],-2.54,-1.54,-0.208,56.5,57.9,-0.0819
